Experimental data reported in PMC5698806 (Molecular cell, 2017).
Numbering of substitutions follows the chain as printed. Names may count otherwise. “And” between values parts separate entries of the source, which are not always exact repeats. Identical values can stand only once.

B1: Poz1ΔN (in S. pombe) (domain or fragment, UniProt O13852 29-249, looked up)
chain: EESSIVNACLRYLGYSKSMCHEKMPIFMDIAFIEYCFNLSLDPSSFQNLPITQTQPDSQQILWEYSLISNALERLENIELERQNCMREDGLVKYTNELLLNKETLNNEALKLYSCAKAGICRWMAFHFLEQEPIDHINFTKFLQDWGSHNEKEMEALQRLSKHKIRKRLIYVSQHKKKMPWSKFNSVLSRYIQCTKLQLEVFCDYDFKQREIVKMLTSNIN
B2: Poz1 of the improved crystal construct Tpz1^475–508-Poz1-Rap1^467–496 (residues 73–86 replaced by GGA, 117–126 by GGGSA) (natural protein, S. pombe)
chain: MNEKIRSQSVLNTLETFFIKENHYDMQREESSIVNACLRYLGYSKSMCHEKMPIFMDIAFIEYCFNLSLDPSGGAQQILWEYSLISNALERLENIELERQNCMREGGGSALLNKETLNNEALKLYSCAKAGICRWMAFHFLEQEPIDHINFTKFLQDWGSHNEKEMEALQRLSKHKIRKRLIYVSQHKKKMPWSKFNSVLSRYIQCTKLQLEVFCDYDFKQREIVKMLTSNIN
B3: GST-Rap1^446-512 (domain or fragment, S. pombe, UniProt Q96TL7 446-512, looked up)
chain: EKTLRETSFRSLDDMSLRKSNSDNIFVKPGEDLEIPLLSDYSDSENISEKSSDDEEAFEKQVTSSYS
B4: Biotin-SUMO-tagged Rap1^446-512 (domain or fragment, S. pombe, UniProt Q96TL7 446-512, looked up)
chain: B3 chain
modifications: also: SUMO tag fused, biotin on Avi tag
B5: Poz1 (full length) (natural protein, S. pombe, UniProt O13852 1-249, looked up)
chain: MNEKIRSQSVLNTLETFFIKENHYDMQREESSIVNACLRYLGYSKSMCHEKMPIFMDIAFIEYCFNLSLDPSSFQNLPITQTQPDSQQILWEYSLISNALERLENIELERQNCMREDGLVKYTNELLLNKETLNNEALKLYSCAKAGICRWMAFHFLEQEPIDHINFTKFLQDWGSHNEKEMEALQRLSKHKIRKRLIYVSQHKKKMPWSKFNSVLSRYIQCTKLQLEVFCDYDFKQREIVKMLTSNIN
B6: Rap1^446-523 (domain or fragment, S. pombe, UniProt Q96TL7 446-523, looked up)
chain: EKTLRETSFRSLDDMSLRKSNSDNIFVKPGEDLEIPLLSDYSDSENISEKSSDDEEAFEKQVTSSYSSPIKVKSQGKS
B7: GST-Tpz1^406-508 (domain or fragment, S. pombe, UniProt O14246 406-508, looked up)
chain: SSVISCTPPAINFTSDICNEQIELEYKRKPIPDYDFMKGLETTLQELYVEHQSKKRRLELFQLTNNHQKNSEACEMCRLGLPHGSFFELLRDWKKIEEFRNKS
B8: Tpz1^475–508-Poz1 complex (complex, S. pombe)
chain 1: NSEACEMCRLGLPHGSFFELLRDWKKIEEFRNKS
chain 2: B5 chain
B9: Poz1-L14R (in S. pombe) (natural protein, UniProt O13852 1-249, looked up)
chain: B5 chain with L14R

Assays:
[1] = target: T1, Tpz1 (full length, in S. pombe) (S. pombe, UniProt O14246 1-508); assay: co-IP
T1 sequence (looked up): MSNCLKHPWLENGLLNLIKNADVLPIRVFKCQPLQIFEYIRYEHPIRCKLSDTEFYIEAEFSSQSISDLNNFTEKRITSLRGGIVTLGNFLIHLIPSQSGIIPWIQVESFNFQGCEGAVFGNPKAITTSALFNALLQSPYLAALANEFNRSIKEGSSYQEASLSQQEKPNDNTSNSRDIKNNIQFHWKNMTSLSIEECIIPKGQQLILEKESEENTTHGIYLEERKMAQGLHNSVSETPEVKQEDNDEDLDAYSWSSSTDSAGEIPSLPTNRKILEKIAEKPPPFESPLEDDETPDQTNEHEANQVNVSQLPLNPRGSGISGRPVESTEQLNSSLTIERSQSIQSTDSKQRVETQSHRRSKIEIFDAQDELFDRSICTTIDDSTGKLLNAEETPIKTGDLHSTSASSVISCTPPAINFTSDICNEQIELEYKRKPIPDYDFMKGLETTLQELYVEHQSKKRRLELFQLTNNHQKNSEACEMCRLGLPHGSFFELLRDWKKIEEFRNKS

[2] = target: T2, Rap1^467–496 (S. pombe, UniProt Q96TL7 467-496); assay: crystal structure
T2 chain (looked up): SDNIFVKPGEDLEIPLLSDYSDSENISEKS

[3] = target: B5; assay: pull-down
[4] = target: B8; assay: pull-down
[5] = target: T3, Poz1ΔN (Poz1^29-249) (S. pombe, UniProt O13852 29-249); assay: BLI
T3 sequence (looked up): B1 chain

[6] = target: T4, Poz1^L14R-Tpz1^475–508 (S. pombe, UniProt O14246 475-508; O13852 1-249, L14R); assay: BLI
T4 sequence (looked up) 1: B8 chain 1
T4 sequence (looked up) 2: B5 chain with L14R

[7] = target: B4; assay: BLI
[8] = target: B5; assay: ITC
[9] = target: T5, Tpz1-Poz1ΔN complex (S. pombe, UniProt O14246 475-508; O13852 29-249); assay: ITC
T5 sequence (looked up) 1: B8 chain 1
T5 sequence (looked up) 2: B1 chain

[10] = target: B8; assay: ITC
[11] = target: B5; assay: crystal structure
[12] = target: T6, TIN2 (human, UniProt Q9BSI4 1-451); assay: ITC
T6 sequence (looked up): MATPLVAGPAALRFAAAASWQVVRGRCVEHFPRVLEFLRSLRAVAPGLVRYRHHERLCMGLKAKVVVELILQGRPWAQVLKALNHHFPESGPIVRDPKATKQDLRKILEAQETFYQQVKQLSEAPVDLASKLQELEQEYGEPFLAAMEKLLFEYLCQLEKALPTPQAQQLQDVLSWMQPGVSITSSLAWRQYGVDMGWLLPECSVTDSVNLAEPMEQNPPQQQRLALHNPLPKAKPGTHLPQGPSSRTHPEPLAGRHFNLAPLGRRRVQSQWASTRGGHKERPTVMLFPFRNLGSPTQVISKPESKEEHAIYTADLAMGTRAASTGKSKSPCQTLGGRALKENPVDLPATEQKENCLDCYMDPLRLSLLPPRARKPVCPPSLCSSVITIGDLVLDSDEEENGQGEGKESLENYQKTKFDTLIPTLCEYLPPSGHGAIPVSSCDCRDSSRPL

## B1
[1]
  fold decrease of the co-IP against wild-type cells: ~3 fold

## B2
[2]
  binding result: binds

## B3
[3]
  binding result: binds
[4]
  binding result: binds

## B4
[5]
  binding result: binds
[6]
  binding result: binds

## B5
[7]
  kon, fold against Tpz1-bound Poz1: ~5 fold

## B6
[8]
  Kd: 5.62 µM and 4.95 µM
[9]
  Kd: 4.58 µM
[10]
  Kd: 0.48 µM

## IFVKPGEDLEIPLLSDYSDSENISE (domain or fragment, S. pombe, UniProt Q96TL7 470-494, looked up) [Rap1^470-494]
[11]
  binding result: binds

## B7
[3]
  binding result: binds

## B8
[7]
  koff, fold slower than with free Poz1: ~60 fold

## B9
[1]
  fold decrease of the co-IP against wild-type cells: ~3 fold

## APADGEGGSELQPKNKRMTISRLVLEEDSQSTEPSAGLNSSQE (domain or fragment, human, UniProt Q15554 382-424, looked up) [TRF2^382-424]
[12]
  Kd: 3.11 µM
